Data: article doi:10.1101/2024.09.21.614250 (bioRxiv, 2024)

T1: Shp2^tSH2 (aa5-218), C-terminally SNAP-tag-fused, SC505-labeled (human, UniProt Q06124 5-218, Snap-Cell505 star (SC505) label on the SNAP-tag)
T1 sequence: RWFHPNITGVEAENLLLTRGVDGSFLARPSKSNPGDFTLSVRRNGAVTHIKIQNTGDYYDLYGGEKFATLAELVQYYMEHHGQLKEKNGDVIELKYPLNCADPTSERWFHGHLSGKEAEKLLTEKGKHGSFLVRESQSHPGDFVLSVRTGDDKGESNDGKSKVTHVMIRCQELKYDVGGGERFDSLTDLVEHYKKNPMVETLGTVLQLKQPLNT

T2: Shp1^tSH2 (aa4-215), C-terminally SNAP-tag-fused, SC505-labeled (human, UniProt P29350 4-215, Snap-Cell505 star (SC505) label on the SNAP-tag)
T2 sequence: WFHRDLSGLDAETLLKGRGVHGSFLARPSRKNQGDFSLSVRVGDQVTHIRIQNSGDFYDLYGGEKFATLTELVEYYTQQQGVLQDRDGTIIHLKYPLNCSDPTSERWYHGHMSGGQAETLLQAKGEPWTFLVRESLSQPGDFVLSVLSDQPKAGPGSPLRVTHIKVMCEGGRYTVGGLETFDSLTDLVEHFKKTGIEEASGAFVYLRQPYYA

B1: His-tagged moPD1 ICD WT, phosphorylated by Lck (domain or fragment)
chain: CSTSMSEARGAGSKDDTLKEEPSAAPVPSVAYEELDFQGREKTPELPTACVHTEYATIVFTEGLGASAMGRRGSADGLQGPRPPRHEDGHCSWPL
modifications: phosphorylated by Lck on the LUV after ATP addition (sites not stated for this assay)
B2: His-tagged huPD1 ICD WT, phosphorylated by Lck (domain or fragment)
chain: CSRAARGTIGARRTGQPLKEDPSAVPVFSVDYGELDFQWREKTPEPPVPCVPEQTEYATIVFPSGMGTSSPARRGSADGPRSAQPLRPEDGHCSWPL
modifications: phosphorylated by Lck on the LUV after ATP addition (sites not stated for this assay)

Assays:
[1] = target: T1, Shp2^tSH2 (aa5-218), C-terminally …; test: FRET or BRET
[2] = target: T2, Shp1^tSH2 (aa4-215), C-terminally …; test: FRET or BRET

Binder | Kd [1] [µM] | binding result [2]
B1 | 0.22 | binds
B2 | 0.076 | binds
